T1: recombinant human activated Factor VII (FVIIa) (human, UniProt P08709 61-212; P08709 213-466, ten glutamate residues of the Gla domain may be gamma-carboxylated)
T1 construct: chains tethered by a disulfide bond; also called Factor VIIa; rFVIIa
T1 sequence 1: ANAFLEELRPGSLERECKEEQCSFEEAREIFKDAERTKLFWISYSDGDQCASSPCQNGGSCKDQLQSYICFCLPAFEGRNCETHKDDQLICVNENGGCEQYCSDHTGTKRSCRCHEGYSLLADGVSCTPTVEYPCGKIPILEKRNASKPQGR
T1 sequence 2: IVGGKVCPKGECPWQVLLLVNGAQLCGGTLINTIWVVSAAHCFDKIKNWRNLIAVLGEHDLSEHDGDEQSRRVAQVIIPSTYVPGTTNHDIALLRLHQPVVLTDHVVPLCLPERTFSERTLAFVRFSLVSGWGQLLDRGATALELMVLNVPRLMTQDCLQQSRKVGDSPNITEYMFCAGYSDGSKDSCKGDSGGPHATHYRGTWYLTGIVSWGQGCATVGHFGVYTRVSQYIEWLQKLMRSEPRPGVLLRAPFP


target: T1, recombinant human activated Factor VII …; experiment: BLI (Fortebio)

Row | Kd [nM] | Binder
1 | 4.6 | VH SEQ ID NO 634 / VL SEQ ID NO 414 (antibody, IgG4, V domains shown, humanized 11F2; IgG4 S228P/kappa) VH: QVQLQESGPGLVKPSQTLSLTCTVSGYSISSDSAWSWIRQPPGKGLEWIGYIQYSGSTNYNPSLKSRVTISRDTSKNQFSLKLSSVTAADTAVYYCARSVNYYGNSFAVGYWGQGTLVTVSS VL: EIVLTQSPATLSLSPGERATLSCRASQGVSDYLAWYQQKPGQAPRLLIKYASQPATGIPARFSGSGSGTDFTLTISSLEPEDFAVYYCQNGHSFPLTFGQGTKLEIK
2 | 40 | VH SEQ ID NO 642 / VL SEQ ID NO 342 (antibody, IgG4, V domains shown, humanized 11F2; IgG4 S228P/kappa) VH: QVQLQESGPGLVKPSQTLSLTCTVSGYSISSDSAWSWIRQPPGKGLEWIGYIYYSGSTNYNPSLKSRVTISVDTSKNQFSLKLSSVTAADTAVYYCARSVNYYGNSFAVGYWGQGTSVTVSS VL: EIVLTQSPATLSLSPGERATLSCRASQGISDYLHWYQQKPGQAPRLLIKYTSQPATGIPARFSGSGSGRDFTLTISSLEPEDFAVYYCQNGHSFPLTFGAGTKLELK
3 | 120 | VH SEQ ID NO 642 / VL SEQ ID NO 350 (antibody, IgG4, V domains shown, humanized 11F2; IgG4 S228P/kappa) VH: QVQLQESGPGLVKPSQTLSLTCTVSGYSISSDSAWSWIRQPPGKGLEWIGYIYYSGSTNYNPSLKSRVTISVDTSKNQFSLKLSSVTAADTAVYYCARSVNYYGNSFAVGYWGQGTSVTVSS VL: EIVLTQSPATLSLSPGERATLSCRASQGISDYLHWYQQKPGQAPRLLIKYTSQPATGIPARFSGSGSGTDFTLTISSLEPEDFAVYYCQNGHSFPLTFGAGTKLELK
4 | 4.9 | VH SEQ ID NO 634 / VL SEQ ID NO 430 (antibody, IgG4, V domains shown, humanized 11F2; IgG4 S228P/kappa) VH: QVQLQESGPGLVKPSQTLSLTCTVSGYSISSDSAWSWIRQPPGKGLEWIGYIQYSGSTNYNPSLKSRVTISRDTSKNQFSLKLSSVTAADTAVYYCARSVNYYGNSFAVGYWGQGTLVTVSS VL: EIVLTQSPATLSLSPGERATLSCRASQGVSDYLAWYQQKPGQAPRLLIKYASQPATGIPARFSGSGSGTDFTLTISSLEPEDFGVYYCQNGHSFPLTFGQGTKLEIK
5 | 1000 | VH SEQ ID NO 642 / VL SEQ ID NO 334 (antibody, IgG4, V domains shown, humanized 11F2; IgG4 S228P/kappa) VH: QVQLQESGPGLVKPSQTLSLTCTVSGYSISSDSAWSWIRQPPGKGLEWIGYIYYSGSTNYNPSLKSRVTISVDTSKNQFSLKLSSVTAADTAVYYCARSVNYYGNSFAVGYWGQGTSVTVSS VL: EIVLTQSPATLSLSPGERATLSCRASQGISDYLHWYQQKPGQAPRLLIKYASQPATGIPARFSGSGSGTDFTLTISSLEPEDFAVYYCQNGHSFPLTFGQGTKLEIK
6 | 1.2 | VH SEQ ID NO 634 / VL SEQ ID NO 462 (antibody, IgG4, V domains shown, humanized 11F2; IgG4 S228P/kappa) VH: QVQLQESGPGLVKPSQTLSLTCTVSGYSISSDSAWSWIRQPPGKGLEWIGYIQYSGSTNYNPSLKSRVTISRDTSKNQFSLKLSSVTAADTAVYYCARSVNYYGNSFAVGYWGQGTLVTVSS VL: EIVLTQSPATLSLSPGERATLSCRASQGVSDYLHWYQQKPGQAPRLLIKYASQPATGIPARFSGSGSGTDFTLTISSLEPEDFAVYYCQNGHSFPLTFGAGTKLEIK
7 | 1.8 | VH SEQ ID NO 634 / VL SEQ ID NO 478 (antibody, IgG4, V domains shown, humanized 11F2; IgG4 S228P/kappa) VH: QVQLQESGPGLVKPSQTLSLTCTVSGYSISSDSAWSWIRQPPGKGLEWIGYIQYSGSTNYNPSLKSRVTISRDTSKNQFSLKLSSVTAADTAVYYCARSVNYYGNSFAVGYWGQGTLVTVSS VL: EIVLTQSPATLSLSPGERATLSCRASQGVSDYLHWYQQKPGQAPRLLIKYASQPATGIPARFSGSGSGTDFTLTISSLEPEDFAVYYCQQGHSFPLTFGQGTKLEIK
8 | 23 | VH SEQ ID NO 642 / VL SEQ ID NO 326 (antibody, IgG4, V domains shown, humanized 11F2; IgG4 S228P/kappa) VH: QVQLQESGPGLVKPSQTLSLTCTVSGYSISSDSAWSWIRQPPGKGLEWIGYIYYSGSTNYNPSLKSRVTISVDTSKNQFSLKLSSVTAADTAVYYCARSVNYYGNSFAVGYWGQGTSVTVSS VL: EIVLTQSPATLSLSPGERATLSCRASQGISDYLHWYQQKPGEAPRLLIKYTSQPATGIPARFSGSGSGTDFTLTISSLEPEDFGVYYCQNGHSFPLTFGAGTKLELK
9 | 81 | VH SEQ ID NO 642 / VL SEQ ID NO 318 (antibody, IgG4, V domains shown, humanized 11F2; IgG4 S228P/kappa) VH: QVQLQESGPGLVKPSQTLSLTCTVSGYSISSDSAWSWIRQPPGKGLEWIGYIYYSGSTNYNPSLKSRVTISVDTSKNQFSLKLSSVTAADTAVYYCARSVNYYGNSFAVGYWGQGTSVTVSS VL: EIVLTQSPATLSLSPGERATLSCRASQGISDYLHWYQQKPGEAPRLLIKYTSQPATGIPARFSGSGSGTDFTLTISSLEPEDFAVYYCQNGHSFPLTFGQGTKLEIK
10 | 600 | VH SEQ ID NO 642 / VL SEQ ID NO 382 (antibody, IgG4, V domains shown, humanized 11F2; IgG4 S228P/kappa) VH: QVQLQESGPGLVKPSQTLSLTCTVSGYSISSDSAWSWIRQPPGKGLEWIGYIYYSGSTNYNPSLKSRVTISVDTSKNQFSLKLSSVTAADTAVYYCARSVNYYGNSFAVGYWGQGTSVTVSS VL: EIVLTQSPATLSLSPGERATLSCRASQGLSDYLHWYQQKPGEAPRLLIKYASQPATGIPARFSGSGSGTDFTLTISSLEPEDFAVYYCQNGHSFPLTFGQGTKLEIK
11 | 1600 | VH SEQ ID NO 642 / VL SEQ ID NO 310 (antibody, IgG4, V domains shown, humanized 11F2; IgG4 S228P/kappa) VH: QVQLQESGPGLVKPSQTLSLTCTVSGYSISSDSAWSWIRQPPGKGLEWIGYIYYSGSTNYNPSLKSRVTISVDTSKNQFSLKLSSVTAADTAVYYCARSVNYYGNSFAVGYWGQGTSVTVSS VL: EIVLTQSPATLSLSPGERATLSCRASQGISDYLAWYQQKPGQAPRLLIKYASQPATGIPARFSGSGSGTDFTLTISSLEPEDFAVYYCQNGHSFPLTFGQGTKLEIK
12 | 1.3 | VH SEQ ID NO 634 / VL SEQ ID NO 502 (antibody, IgG4, V domains shown, humanized 11F2; IgG4 S228P/kappa) VH: QVQLQESGPGLVKPSQTLSLTCTVSGYSISSDSAWSWIRQPPGKGLEWIGYIQYSGSTNYNPSLKSRVTISRDTSKNQFSLKLSSVTAADTAVYYCARSVNYYGNSFAVGYWGQGTLVTVSS VL: EIVLTQSPATLSLSPGERATLSCRASQGVSDYLHWYQQKPGQAPRLLIKYTSQPATGIPARFSGSGSGTDFTLTISSLEPEDFAVYYCQNGHSFPLTFGQGTKLEIK
13 | 1.4 | VH SEQ ID NO 634 / VL SEQ ID NO 486 (antibody, IgG4, V domains shown, humanized 11F2; IgG4 S228P/kappa) VH: QVQLQESGPGLVKPSQTLSLTCTVSGYSISSDSAWSWIRQPPGKGLEWIGYIQYSGSTNYNPSLKSRVTISRDTSKNQFSLKLSSVTAADTAVYYCARSVNYYGNSFAVGYWGQGTLVTVSS VL: EIVLTQSPATLSLSPGERATLSCRASQGVSDYLHWYQQKPGQAPRLLIKYASQPATGIPARFSGSGSGTDFTLTISSLEPEDFGVYYCQNGHSFPLTFGQGTKLEIK
14 | 4.8 | VH SEQ ID NO 634 / VL SEQ ID NO 438 (antibody, IgG4, V domains shown, humanized 11F2; IgG4 S228P/kappa) VH: QVQLQESGPGLVKPSQTLSLTCTVSGYSISSDSAWSWIRQPPGKGLEWIGYIQYSGSTNYNPSLKSRVTISRDTSKNQFSLKLSSVTAADTAVYYCARSVNYYGNSFAVGYWGQGTLVTVSS VL: EIVLTQSPATLSLSPGERATLSCRASQGVSDYLAWYQQKPGQAPRLLIKYASQPATGIPARFSGSGSGTDFTLTISSLEPEDVAVYYCQNGHSFPLTFGQGTKLEIK
15 | 7.7 | VH SEQ ID NO 634 / VL SEQ ID NO 446 (antibody, IgG4, V domains shown, humanized 11F2; IgG4 S228P/kappa) VH: QVQLQESGPGLVKPSQTLSLTCTVSGYSISSDSAWSWIRQPPGKGLEWIGYIQYSGSTNYNPSLKSRVTISRDTSKNQFSLKLSSVTAADTAVYYCARSVNYYGNSFAVGYWGQGTLVTVSS VL: EIVLTQSPATLSLSPGERATLSCRASQGVSDYLAWYQQKPGQAPRLLIKYTSQPATGIPARFSGSGSGTDFTLTISSLEPEDFAVYYCQNGHSFPLTFGQGTKLEIK
16 | 320 | VH SEQ ID NO 642 / VL SEQ ID NO 358 (antibody, IgG4, V domains shown, humanized 11F2; IgG4 S228P/kappa) VH: QVQLQESGPGLVKPSQTLSLTCTVSGYSISSDSAWSWIRQPPGKGLEWIGYIYYSGSTNYNPSLKSRVTISVDTSKNQFSLKLSSVTAADTAVYYCARSVNYYGNSFAVGYWGQGTSVTVSS VL: EIVLTQSPATLSLSPGERATLSCRASQGISDYLHWYQQKPGQAPRLLIKYTSQPATGIPARFSGSGSGTDFTLTISSLEPEDFAVYYCQNGHSFPLTFGQGTKLEIK
17 | 1.2 | VH SEQ ID NO 634 / VL SEQ ID NO 454 (antibody, IgG4, V domains shown, humanized 11F2; IgG4 S228P/kappa) VH: QVQLQESGPGLVKPSQTLSLTCTVSGYSISSDSAWSWIRQPPGKGLEWIGYIQYSGSTNYNPSLKSRVTISRDTSKNQFSLKLSSVTAADTAVYYCARSVNYYGNSFAVGYWGQGTLVTVSS VL: EIVLTQSPATLSLSPGERATLSCRASQGVSDYLHWYQQKPGEAPRLLIKYASQPATGIPARFSGSGSGTDFTLTISSLEPEDFAVYYCQNGHSFPLTFGQGTKLEIK
18 | 1 | VH SEQ ID NO 634 / VL SEQ ID NO 470 (antibody, IgG4, V domains shown, humanized 11F2; IgG4 S228P/kappa) VH: QVQLQESGPGLVKPSQTLSLTCTVSGYSISSDSAWSWIRQPPGKGLEWIGYIQYSGSTNYNPSLKSRVTISRDTSKNQFSLKLSSVTAADTAVYYCARSVNYYGNSFAVGYWGQGTLVTVSS VL: EIVLTQSPATLSLSPGERATLSCRASQGVSDYLHWYQQKPGQAPRLLIKYASQPATGIPARFSGSGSGTDFTLTISSLEPEDFAVYYCQNGHSFPLTFGQGTKLEIK
19 | 1.3 | VH SEQ ID NO 634 / VL SEQ ID NO 494 (antibody, IgG4, V domains shown, humanized 11F2; IgG4 S228P/kappa) VH: QVQLQESGPGLVKPSQTLSLTCTVSGYSISSDSAWSWIRQPPGKGLEWIGYIQYSGSTNYNPSLKSRVTISRDTSKNQFSLKLSSVTAADTAVYYCARSVNYYGNSFAVGYWGQGTLVTVSS VL: EIVLTQSPATLSLSPGERATLSCRASQGVSDYLHWYQQKPGQAPRLLIKYASQPATGIPARFSGSGSGTDFTLTISSLEPEDVAVYYCQNGHSFPLTFGQGTKLEIK
20 | 26 | VH SEQ ID NO 634 / VL SEQ ID NO 422 (antibody, IgG4, V domains shown, humanized 11F2; IgG4 S228P/kappa) VH: QVQLQESGPGLVKPSQTLSLTCTVSGYSISSDSAWSWIRQPPGKGLEWIGYIQYSGSTNYNPSLKSRVTISRDTSKNQFSLKLSSVTAADTAVYYCARSVNYYGNSFAVGYWGQGTLVTVSS VL: EIVLTQSPATLSLSPGERATLSCRASQGVSDYLAWYQQKPGQAPRLLIKYASQPATGIPARFSGSGSGTDFTLTISSLEPEDFAVYYCQQGHSFPLTFGQGTKLEIK

— patent US20220064329A1 (Novo Nordisk, published 2022)
